# Data reported in PMC4189725.
# Target: CD40-FasL
# Assay: SEC; gel filtration (Superdex 200) of CD40-FasL conditioned medium; fractions analysed by Western blot (anti FasL) and CD40 ELISA
substance,measurement,value
CD40-FasL,stoichiometry N,6
